To fix the notation:
B1: humanized 1129 (CDR-grafted anti-RSV F antibody, human IgG1/kappa) (antibody, V domains shown)
VH: QVTLRESGPALVKPTQTLTLTCTFSGFSLSTSGMSVGWIRQPPGKALEWLADIWWDDKKDYNPSLKSRLTISKDTSKNQVVLKVTNMDPADTATYYCARSMITNWYFDVWGAGTTVTVSS
VL: DIQMTQSPSTLSASVGDRVTITCKCQLSVGYMHWYQQKPGKAPKLWIYDTSKLASGVPSRFSGSGSGTEFTLTISSLQPDDFATYYCFQGSGYPFTFGGGTKLEIK
notes: also called H1129; Hu1129
B2: murine monoclonal antibody MAb 1308F (antibody, V domains shown)
VH: EVQKQQSGAELVRPGALVKLSCKASGFNIKDYYIYWVKQRPEQGLEWIGWIDPENGNTVFDPLFQGKASITSDTSSNTAYLQLSSLTSEDTAVYYCAYYGTSSFDFWGQGTTLTVSS
VL: DIKMTQSPSSMYVSLGERVTITCKASQDINRYLNWFQQKPGKSPKTLIHRANRLVDGVPSRFSGSGSGQEYSLTISSLEFEDMGIYYCLQFHEFPYTFGGGTKLEIL
notes: also called M1308F; Mu1308F
B3: humanized 1308F (CDR-grafted anti-RSV F antibody, human IgG1/kappa) (antibody, V domains shown)
VH: QVQLVQSGAEVKKPGASVKVSCKASGFNIKDYYIYWVRQAPGQGLEWIGWIDPENGNTVFDPKFNGRVTMTRDTSTSTVYMELSSLRSEDTAVYYCAYYGTSSFDFWGQGTTLTVSS
VL: DIQMTQSPSTLSASVGDRVTITCKASQDINRYLNWYQQKPGKAPKLLIYRANRLVDGVPSRFSGSGSGTEFTLTISSLQPDDFATYYCLQFHEFPYTFGGGTKLEIL
notes: also called H1308F; Hu1308F
B4: murine monoclonal antibody MAb 1129 (antibody, V domains shown)
VH: QVELQESGPGILQPSQTLSLTCSFSGFSLSTSGMSVGWIRQPSGEGLEWLADIWWDDKKDYNPSLKSRKTISKDTSSNQVFLKITGVDTADTATYYCARSMITNWYFDVWGAGTTVTVSS
VL: DIQLTQSPAIMSASPGEKVTMTCSASSSVGYMHWYQQKSSTSPKLWIYDTSKLASGVPGRFSGSGSGNSYSLTISSIQAEDVATYYCFQGSGYPFTFGGGTKLEIK
notes: also called M1129

What is called Kd is the equilibrium constant for the complex coming apart. Broadly, the koff is the first-order rate constant of dissociation. The kon is a measure of how fast the partners come together.

T1 sequence (P03420 26-574): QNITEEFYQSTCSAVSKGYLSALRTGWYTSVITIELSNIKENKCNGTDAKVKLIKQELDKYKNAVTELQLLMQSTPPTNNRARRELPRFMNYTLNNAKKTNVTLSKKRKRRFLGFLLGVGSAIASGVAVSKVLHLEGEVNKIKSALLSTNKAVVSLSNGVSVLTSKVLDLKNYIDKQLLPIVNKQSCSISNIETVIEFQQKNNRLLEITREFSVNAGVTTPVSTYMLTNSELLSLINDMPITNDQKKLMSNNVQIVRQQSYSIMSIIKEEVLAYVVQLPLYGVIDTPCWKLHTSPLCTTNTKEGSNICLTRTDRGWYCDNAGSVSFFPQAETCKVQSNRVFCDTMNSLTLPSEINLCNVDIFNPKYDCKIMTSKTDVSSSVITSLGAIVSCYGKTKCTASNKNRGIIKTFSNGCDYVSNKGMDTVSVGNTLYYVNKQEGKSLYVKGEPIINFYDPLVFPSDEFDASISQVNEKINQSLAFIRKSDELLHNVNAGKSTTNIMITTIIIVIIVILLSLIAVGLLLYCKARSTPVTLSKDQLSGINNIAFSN

One experiment concerns the target T1, RSV F protein (native, from RSV virus or RSV infected HEP2 cell lysate) (respiratory syncytial virus, UniProt P03420 26-574).
T1 construct: In the ELISA the antigen was whatever the Mu1331 anti-F antibody captured from the infected cell lysate; also called RSV F antigen; RSV F glycoprotein
Briefly: capture ELISA: RSV infected HEP2 cell lysate captured on Mu1331 antibody; double reciprocal plot of OD vs antibody concentration.
In turn, B1 yielded a Kd of 0.7 nM.

Another experiment deals with T2, C-terminal truncated RSV F protein (secreted, from recombinant baculovirus) (respiratory syncytial virus, UniProt P03420 26-524).
T2 construct: also called immobilized F protein
T2 sequence (P03420 26-524): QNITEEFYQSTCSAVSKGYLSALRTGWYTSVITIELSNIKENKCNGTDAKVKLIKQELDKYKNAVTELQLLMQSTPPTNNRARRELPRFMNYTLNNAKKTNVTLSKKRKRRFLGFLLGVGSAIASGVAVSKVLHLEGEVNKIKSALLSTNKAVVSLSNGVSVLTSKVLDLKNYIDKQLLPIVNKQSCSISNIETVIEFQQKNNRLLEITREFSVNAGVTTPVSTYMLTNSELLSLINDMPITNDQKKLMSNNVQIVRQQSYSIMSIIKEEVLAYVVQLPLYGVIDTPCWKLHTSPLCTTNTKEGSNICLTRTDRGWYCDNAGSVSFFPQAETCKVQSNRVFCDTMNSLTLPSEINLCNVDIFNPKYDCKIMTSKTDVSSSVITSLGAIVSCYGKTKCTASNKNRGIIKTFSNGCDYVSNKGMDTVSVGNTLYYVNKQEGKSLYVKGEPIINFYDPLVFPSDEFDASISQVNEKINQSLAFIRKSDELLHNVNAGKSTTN
Nature of the experiment: SPR (BIAcore), F protein amine-coupled, Kd = kd/ka.
In the case of B2, the Kd came to 1.1 nM.
On to B1, for which the Kd amounted to 1.4 nM.
B3: the Kd came out at 2.5 nM.
Still for that read-out and setting: the figure for B4 is 11.4 nM.

The next experiment concerns the target T2, C-terminal truncated RSV F protein …. Nature of the experiment: SPR (BIAcore), F protein amine-coupled, Mab injected at 25-300 nM. (In general: In SPR one partner is held on a chip, and binding of the other changes the refractive index at the surface.)
As to B2, the koff was determined as 3.8e-05 s⁻¹, the kon stood at 35000 M⁻¹ s⁻¹ and the “t1/2 (dissociation half-life)” value turned out to be 5.1 h.
Take B1: the koff was determined as 6.9e-05 s⁻¹, the kon was 49000 M⁻¹ s⁻¹ and the “t1/2 (dissociation half-life)” value came to 2.8 h.
On the same counts, the results for B3 are 5.5e-05 s⁻¹, 22000 M⁻¹ s⁻¹ and 3.5 h.
In the same order, the values of B4 are 0.0004 s⁻¹, 35000 M⁻¹ s⁻¹ and 0.48 h.
